This data set is described as follows: soluble on expression in E. coli; label from the status in PepcDB or PDB records.
As for “MEFIGDTRIVIINPLGAKKICRLTFEQIKVIYQEVKTHFENYRIIFTGLPQDLLTIPILEIETLPFDEFIYTVALTKYSDFVISVDTALVHIAAAYHKPTLAFYPNSRTPEYPSHLIWSPNHHKSIQIVSPTYTVKDIDTETLTNSVKRLEHHHHHH”, the “soluble on expression in E. coli” value is listed as “not soluble”.
The value for “MKERFMSKFAIVFPGQGSQAVGMLADLAEQYAVVKQTFAEASEVLGYDLWALVQDGPVEDLNQTFRTQPALLAASVAIWRVWQQLGLEQPAVLAGHSLGEYSALVCAGVIDFKQAIKLVELRGQLMQQAVPAGTGAMYAIIGLEDEAIAKACADAAQGEVVSPVNFNSPGQVVIAGQKDAVERAGVLCKEAGAKRALPLPVSVPSHCALMKPAADELAKTLAELEFNAPQIPVINNVDVVAETDPVKIKDALIRQLYSPVRWTECVEQMSAQGVEKLIEMGPGKVLTGLTKRIVKTLEGVAVNDVASLDAVK” was “soluble”; that for “PGYLNDIPRHGMFVKDLILLVNDTAAVAYDPMENECYLTALAEQIPRNHSSIVTQQNQVYVVGGLYVDEENKDQPLQSYFFQLDNVSSEWVGLPPLPSARCLFGLGEVDDKIYVVAGKDLQTEASLDSVLCYDPVAAKWSEVKNLPIKVYGHNVISHNGMIYCLGGKTDDKKCTNRVFIYNPKKGDWKDLAPMKTPRSMFGVAIHKGKIVIAGGVTEDGLSASVEAFDLKTNKWEVMTEFPQERSSISLVSLAGSLYAIGGFAMIQLESKEFAPTEVNDIWKYEDDKKEWAGMLKEIRYASGASCLATRLNLFKLSKL” was “soluble”; that for “YRNSIEGLIEKGIRDEEFIPYYQPIVDSRTQEVVGYEVLLRWQKGHQLVPPSLFISAAEDSGLVVKITNQLIQQVHRDLAQIPAPRWVSINVVADHLEQHHLTHLLEELHWPYSERLKFELTERVPIKAMTQAQEEVFYLLKKGYQFKIDDFGTGYGGFAYLQNLQISSIKIDKMFVDTINTHDVKISVLDSIIASAQGGNIEVIAEGVEHQYQVDYLAERNVFWIQGYFYAKP” was “not soluble”.
As to “MGSDKIHHHHHHVKFRVDRDAFADAVTWTARALPARPAVPVLAGMRLEVADTASDTLRLSGFDYEVSAQASVDVHAEEAGSVLVPGRLLAEIVRTLPPHPVEFHVEGSRALLTCGNARFTLLTLPLEDYPTLPAMPRTIGSAPADVFATAVRQVLPSTSRDDTLPMLTGVHLTFRGDTILLAATDRYRIAVREMWWKPEEVDIDTSALVPARTLGDFSRSLTGGNVDIALSTSDSRGAGEGMIGFEHDGKRTTTRLIDSDFVSYESRFPTEFAAQADVPVAPLAEAVKRVALVADRSTPVRLSFTSSEVVLEAGSGDDAQALEALEVNFEGEPMRIAFNPQYFLDGLTNVETERAFLRFVAPTRPAVITGTPAKEGGKPDFRYLVMPLRLA”, the “soluble on expression in E. coli” value is given as “not soluble”.
The value for “MINRPSTVNNPFIGTNAVLRLRQQRLEQSTKPFRARGSRVMRCQQCLLPAINCLCHTIQAQPSRSRVCLVMFDTEPLKPSNTGRIIADILPETQAFRWSRTEPDPQLLATLQDPDVQPYLVFLADAAEEGRQVFQQLPATEKPALFVLLDGTWPEARKMFRKSPYLDNLPILSLNVEALSRYQLREASSAGQHCTAEIAIALLAQAGDIVAADALSQHFDRFRQHYLAGKPHHRLQENLPIVTAQPAESVLEHHHHHH” was “not soluble”.
Turning to “SEDCCMLPYYTAQSSPAMGMFNTSMGKLQRQLYKGEYTIFRYAPMFESDFIQISKRGEVIDVHNRARMVTMGIVRTSPCLTLPDVMLLARPAAVCDNARCGPATQKRESPPAEILELTRLLPLMFVKITIHNSVKKQLHLKLATGRSFYLQLCPPSDASEDLFVHWENLVYILRPPVEAYSDTRAILAGNTLDSSVLEEVQRSPVGYAMKFCEEKEQFRISRLHMNAEMFGSTYCDYTIEI”, the “soluble on expression in E. coli” value is on record as “soluble”.
With “MMIIVGVDAGGTKTKAVAYDCEGNFIGEGSSGPGNYHNVGLTRAIENIKEAVKIAAKGEADVVGMGVAGLDSKFDWENFTPLASLIAPKVIIQHDGVIALFAETLGEPGVVVIAGTGSVVEGYNGKEFLRVGGRGWLLSDDGSAYWVGRKALRKVLKMMDGLENKTILYNKVLKTINVKDLDELVMWSYTSSCQIDLVASIAKAVDEAANEGDTVAMDILKQGAELLASQAVYLARKIGTNKVYLKGGMFRSNIYHKFFTLYLEKEGIISDLGKRSPEIGAVILAYKEVGCDIKKLISD” the entry was “soluble”; with “RLLGAPVPVDENDEGLQRALQFAMAEYNRASNDKYSSRVVRVISAKRQLVSGIKYILQVEIGRTTCPKSSGDLQSCEFHDEPEMAKYTTCTFVVYSIPWLNQIKLLESKCQ”, “soluble”; with “MGSDKIHHHHHHMSNTVRAISPDITLFNKTLTFQEISQNTREAVIYIHGGAWNDPENTPNDFNQLANTIKSMDTESTVCQYSIEYRLSPEITNPRNLYDAVSNITRLVKEKGLTNINMVGHSVGATFIWQILAALKDPQEKMSEAQLQMLGLLQIVKRVFLLDGIYSLKELLVEYPEYDCFTRLAFPDGIQMYEEEPSRVMPYVKKALSRFSIDMHLVHSYSDELLTLRQTNCLISCLQDYQLSFKLYLDDLGLHNDVYKNGKVAKYIFDNIC”, “not soluble”.
With “MGSDKIHHHHHHMKIDEFNKALDRGEISPLYYFHGDEPHLMERAVKRLMDSAVPPDFRDFNLDVFYGNECKGDEVASVAQTLPMFADRRMVLVKRAGDLSAAALEILASCVADPPPTTCLVFMGEKVDQRKKFFQEMKKKGELVECKRPYENQLGAFIREEAKGLGKRVEPAAAEMLVYLVGNNLGELSTQLEKVALYVGQRETISVEDVRGIVSDTKVESVFDLTNALGERNVVKALRSLATILRDGEAPLMLLAMIARHFRQLWRVRDLMAQKVPQQDISRLAGINPYFIKGVMAQARNFSASELKKVFEGLYATDLALKGGGAKRPTLTLEKLVMDVCGMGSR” the entry was “not soluble”; with “MMTLIRITSADDSRLNRLIPLYEESFPESERRKIGQLKRMIENHAPMYFNAIECDGELSGMFVYWDMGDFYYLEHLAVFPEMRNKKIGQQVLDYVAEHLKGVRLLEVEPTEDEMTTRRVNYYRRNGYEVLDKTYVQPSYHALEDACPLWIMGSEDSPRLAEQVERIKEEVYRQQVG”, “not soluble”.
The value for “MGSDKIHHHHHHMKIQEVKRILTRWQPSSFSLYREVFTQYGGSINMHPDIVDYFMKRYNWHFKFFHYKEDDKIKGAYFICNDQNIGILTRRTFPLSSDEILIPMAPDLRCFLPDRTNRLSALHQPQIRNAIWKLARKKQNCLVKETFSSKFEKTRRNEYQRFLKKGGSVKSVADCSSDELTHIFIELFRSRFGNTSSCYPADNLANFFSQLHHLLFGHILYIEGIPCAFDIVLKSESQMNIYFDVSNGAIKNECRPLSPGSILMWLNISRARHYCQERQKKLLFSIGILKPEWEYKRMWSTPYFTGKSIC” was “not soluble”; that for “MAAPSAGSWSTFQHKELMAADRGRRILGVCGMHPHHQETLKKNRVVLAKQLLLSELLEHLLEKDIITLEMRELIQAKVGSFSQNVELLNLLPKRGPQAFDAFCEALRETKQGHLEDMLLTTLSGLQHVLPPLSCDYDLSLPFPVCESCPLYKKLRLSTDTVEHSLDNKDGPVCLQVKPCTPEFYQTHFQLAYRLQSRPRGLALVLSNVHFTGEKELEFRSGGDVDHSTLVTLFKLLGYDVHVLCDQTAQEMQEKLQNFAQLPAHRVTDSCIVALLSHGVEGAIYGVDGKLLQLQEVFQLFDNANCPSLQNKPKMFFIQACRGDETDRGVDQQDGKNHAGSPGCEESDAGKEKLPKMRLPTRSDMICGYACLKGTAAMRNTKRGSWYIEALAQVFSERACDMHVADMLVKVNALIKDREGYAPGTEFHRCKEMSEYCSTLCRHLYLFPGHPPT” was “not soluble”; that for “MSDLQKLQRFSTCDISDGLLNVYNIPTGGYFPNLTAISPPQNSSIVGTAYTVLFAPIDDPRPAVNYIDSVPPNSILVLALEPHLQSQFHPFIKITQAMYGGLMSTRAQYLKSNGTVVFGRIRDVDEHRTLNHPVFAYGVGSCAPKAVVKAVGTNVQLKILTSDGVTQTICPGDYIAGDNNGIVRIPVQETDISKLVTYIEKSIEVDLLVSEDIKNGIPAKQAQNDRRSVLKKYIHHHHHH” was “soluble”.
Turning to “MESKIPAIEKHRDAYVKIRIIESLDELALGLKLLKEGFSRNSANKVFQSWKAIISALTVINLEKMPRNEKEKEWYYKSGFLAPTTGLKGISQRLEELGYKVNSLTSVALELHRYAYNGLYKGASDYYEREEAINDIIYLSKEIMKVIKEFFKEYWDEEIEEHYNLAEKELMKLEHHHHHH”, the “soluble on expression in E. coli” value is listed as “not soluble”.
The value for “MDLHLKNLFGRFQEQFGSGPGLGPGSGVCLMIVEGISSNIIQSIFRASASLYSSEPWKRLRPGHLFGVRVGKDSDWSGKRQPFQCVQFIGGDGGDIAIYMYRSMSYALKMTDGDSWEMARDPNVEVFRVTYELESLMLPSNKRMVKSLSLEVSGTDRFPIMDVARCMTSGELQFRSPTLEELRLVFAVMKALSLVHPLLLQEEKQVRGLPRMIKFSPFIETVDVQWPSEMGKGHDFVAVTVSHPPGQSYEQKREDDELEIVSGMTA” was “soluble”; that for “MGSDKIHHHHHHMSCLVLPLVSVGNIPQLSIDWLLNSQANEWEYLEALDSKYLVEFVGPLDRPEDGSDSLYKDADMKYSSALEVFYNKKRGLFAIQQRTPLVSVNYLNNFIVEIILPFLSKYNISEICIWDSLYAMEDENGVIVRPQEVYSLGEFYFDDEAELLSNLHLNDQESMVNNWLHFTPTSFQDKISVDQPIFKILFQILNASQRPKALRSIKYCSCLANEGDNSLDSQQFLQWIISQKVIKNAPPIVKFVRPISWQGAYGMADARDKFVDLYN” was “not soluble”; that for “MGSDKIHHHHHHMSLPSIKTTNSYCVVLWCDQGSATINAPDRVVQVMAGDVVLAPHGAFVTGHGVVLPMAFPDFDGGEHTRRLHMGTAWSKRMIFEFSRSLLGETRPSECIAALFDDRARPPRVPEPQAARKVAQKLIAYPADQTPLLEFAQLHNISSRTLQRQFVASTGFTFSEWRAALRVSVAADLLAHDFRIGQVSQMVGFSATSSLTRAFKRHTGDTPSSFTSPRMHAVCEQQPPMIPATTTFARASDDIALWIYSGTATVTTPGYCRFMGAGETVTIPSGTSTRLDVSAGSVALPVPLAAAHDDLTLSDVLAASVNPLAAVELQRLSAQERADVEQVLVPSV” was “not soluble”.
With “MGSDKIHHHHHHMKKILIVTRTFGKYSQEPVEFLRKEGFEIIRSDTIDPDILKEVDALIVGTHPVTAEMVENSSLKIIAKHGVGVDNIDLEAATKKGIPVTITAGANSLSVAELTIAFIFALSRGLVWAHNKLFLERRWEGTVGQEVSGKTLGVVGFGSIGREVVKKAVCLGMNVLVYDPYVSKDSVRLLEATPVDDLEQLLKESDFVSLHVPLNESTKNMIGERELSLMKKSAFLINTSRGELVDEEALVKALKEGRIAGAALDVFSEEPPDANSPLFECPNLITTAHIGAHTKEAIFRMNMMAAQSIVDFFKGRIPRYVVNKEVIRILKEKGYQEIS” the entry was “not soluble”; with “MMTTSLFNNDDLNQLESKGITPEEAMRQVEALRYGFPYPNIIAPASLENGIMRLDEDDKSAYLLEWDRYLNSPNCNVVKFVPASGAASRMFKDLYNFLDADYNEPTTDAEKAFFAHLTRFAFYDSLNETCLRNAWRTVPKLIASKEYKTVVENLLYPKGLNYGNLPKGLLLFHLYGKETRTPTEEHLAEGALYERSGTRQVKVHFTVSPEHIEEFKNNIDKRQRFLEDEYCIRYEVSFSVQDSSTDTLALTPEGELFRLENGELLFRPGGHGALIRNLQETNADIVFIKNIDNVVPDFLKCDTIIYKKLIAGVLVKAREHIFNYLQLLEKPKVVHAQLMEIVDFLRYNFCIEISNIDLMEDKDLLELLRRKLDRPIRVCGMVRNQGEPGGGPFIIREADGSSSLQILESTQIDMSDPQKRAIFEQGSYFNPVDLVCSLRDYKGEPFNLESFVNPKTAFISEKSKDGRKLLALERPGLWNGAMDDWNTIFIEVPISTFAPVKTVNDLLRPEHQPCQS”, “soluble”.

Source of the values: the DeepSol protein solubility set.
